Changes are numbered by the printed parent chain.
Tests used:
cy-IL-36α = biological target: T1, cy-IL-36α (cynomolgus monkey, UniProt Q9UHA7 14-158 (human entry), limits assumed); assay: cell-based or functional assay
T1 chain: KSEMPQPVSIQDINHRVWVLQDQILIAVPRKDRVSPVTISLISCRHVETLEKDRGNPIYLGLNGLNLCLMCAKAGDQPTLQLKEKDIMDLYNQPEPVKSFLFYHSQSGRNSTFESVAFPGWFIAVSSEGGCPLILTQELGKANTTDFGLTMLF

cy-IL-36γ = biological target: T2, cy-IL-36γ (cynomolgus monkey, UniProt Q9NZH8 18-167 (human entry), limits assumed); assay: cell-based or functional assay
T2 chain: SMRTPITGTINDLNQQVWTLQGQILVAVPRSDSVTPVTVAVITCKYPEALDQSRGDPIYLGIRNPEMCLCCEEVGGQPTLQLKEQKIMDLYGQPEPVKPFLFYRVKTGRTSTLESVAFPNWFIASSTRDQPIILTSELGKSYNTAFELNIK

hu-IL-36α = biological target: T3, hu-IL-36α (human, UniProt Q9UHA7 6-158); assay: cell-based or functional assay
T3 sequence: T1 chain with S2I, E3D, M4T, P7Q, V8G, I24T, V34M, S40A, A74V

hu-IL-36γ = biological target: T4, hu-IL-36γ (human, UniProt Q9NZH8 18-169); assay: cell-based or functional assay
T4 sequence: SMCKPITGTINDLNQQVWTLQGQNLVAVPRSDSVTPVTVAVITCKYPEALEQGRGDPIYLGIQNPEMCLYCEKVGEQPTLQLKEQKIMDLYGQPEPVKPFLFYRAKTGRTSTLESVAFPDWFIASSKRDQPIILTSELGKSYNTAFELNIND

hu-IL-36β [1] = biological target: T5, hu-IL-36β (human); assay: SPR (Biacore 8K), biotinylated hu-IL-36β captured, Fab injected, 37 C
T5 construct: Used biotinylated in SPR and some ELISAs; treated here as the same molecule; also called human IL-36β; IL-36b
T5 chain: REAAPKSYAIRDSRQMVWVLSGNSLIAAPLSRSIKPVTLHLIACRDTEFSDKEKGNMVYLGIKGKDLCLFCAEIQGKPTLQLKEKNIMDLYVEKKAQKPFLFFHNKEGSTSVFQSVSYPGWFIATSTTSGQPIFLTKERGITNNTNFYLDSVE
Description: Briefly, a 1:4 dilution of Biotin CAPture Reagent (GE) into HBS-EP buffer (0.01 M HEPES pH 7.4, 0.15 M NaCl, 3 mM EDTA, 0.005% Surfactant P20) was applied to a CAP sensor chip at 2 uL/min flow rate. For kinetics measurements, 6 nM biotinylated human IL-36β was captured at 10 uL/min to achieve ˜50 response units in the second flow cell (FC2). FC1 was kept as a reference. Next, […] serial dilutions of Fab in HBS-P buffer (0.01M HEPES pH 7.4, 0.15M NaCl, 0.005% surfactant P20) from low (3.125 nM) to high (200 nM) were injected (flow rate: 10 uL/min) at 37° C. The sensorgram was recorded and subject to reference and buffer subtraction before evaluating by BIACORE® 8K Evaluation Software (version 1.1.1.7442). Association rates (kₒₙ) and dissociation rates (koff) were calculated using a simple one-to-one Langmuir binding model.

hu-IL-36β [2] = biological target: T5, hu-IL-36β; assay: cell-based or functional assay
cy-IL-36β = biological target: T6, cy-IL-36β (cynomolgus monkey); assay: cell-based or functional assay
T6 chain: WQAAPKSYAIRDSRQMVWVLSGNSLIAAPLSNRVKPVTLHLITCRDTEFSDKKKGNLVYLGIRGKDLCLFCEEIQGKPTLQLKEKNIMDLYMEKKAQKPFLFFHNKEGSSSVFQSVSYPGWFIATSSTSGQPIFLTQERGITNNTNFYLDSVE

hu-IL-36β [3] = biological target: T5, hu-IL-36β; assay: cell-based or functional assay

B1: mAb2.0 IgG (antibody, V domains shown)
VH: QLQLQESGPGLVKPSETLSLTCTVSGGSISTSSYYWGWIRQPPGKGLEWIGSIYYTGNTYYNPSLKSRVTISVDTSKNQFSLKLSSVTAADTAVYYCARVRYGVGVPRYFDPWGQGTLVTVSS
VL: QSVLTQPPSVSGAPGQRVTISCTGSSSNIGAHYDVHWYQQLPGTAPKLLIYGNDNRPSGVPDRFSGSKSGTSASLAITGLQAEDEADYYCQSYDYSLSGYVFGGGTKLTVLG
- IC50, HEK Blue SEAP reporter assay with cynomolgus IL-36 on human IL-36 receptor (cy-IL-36α): 0.56 nM
- IC50, HEK Blue SEAP reporter assay with cynomolgus IL-36 on human IL-36 receptor (cy-IL-36γ): 1.71 nM
- IC50, HEK Blue SEAP reporter assay (hu-IL-36α): 5.7 nM
- IC50, HEK Blue SEAP reporter assay (hu-IL-36γ): 7.5 nM

B2: mAb6_2.6 Fab (Fab, V domains shown)
VH: ELQLQESGPGLVKPSETLSLTCTVSGGSITASNYYWGWIRQPPGKGLEWIGSIDYTGSTYYEPSLKSRVTISVDTSKNQFSLKLSSVTAADTAVYYCATGNYYETYLGFDVWGQGTLVTVSS
VL: ESVLTQPPSVSGAPGQRVTISCTGSSSNIGAHYDVHWYQQLPGTAPKLLIYGNDNRPSGVPDRFSGSKSGTSASLAITGLQAEDEADYYCQSYDYSLSGYVFGGGTKLTVL
notes: Recombinant Fab with 8xHis tag
- kon (hu-IL-36β [1]): 850000 M⁻¹ s⁻¹

B3: mAb6.0 IgG (antibody, V domains shown)
VH: B2 VH with E1Q, A31S, E62N, T99R, N101K
VL: QESVLTQPPSVSGAPGQRVTISCTGSSSNIGAGYDVHWYQQLPGTAPKLLIYGNTNRPSGVPDRFSGSKSGTSASLAITGLQAEDEADYYCQSYDISLSGWVFGGGTKLTVLG
- blocking potency relative to the natural antagonist IL-36Ra, HaCat IL-8 assay (hu-IL-36β [2]): 1000 fold
- IC50, HEK Blue SEAP reporter assay with cynomolgus IL-36 on human IL-36 receptor (cy-IL-36β): 1.96 nM
- IC50, HEK Blue SEAP reporter assay (hu-IL-36β [3]): 0.64 nM
